From US20050130898A1 (HIDECHIKA OKADA, published 2005)
Bridge positions count the residues as written; N and C are the ends. Ends that are not written are not given here. I, II: the chains in the order shown.

Legend:
Carboxypeptidase R (CPR) [1] = target: T1, Carboxypeptidase R (CPR) (human, UniProt Q96IY4 115-423); assay: enzyme kinetics, CPR hydrolysis of hippuryl-L-arginine, Lineweaver-Burke at 253 nM inhibitor
T1 construct: domain: 309-amino acid enzyme (CPR; 35 kDa) after cleavage at Arg92; also called plasma carboxypeptidase B (CPB); carboxypeptidase U (CPU)
T1 sequence (looked up): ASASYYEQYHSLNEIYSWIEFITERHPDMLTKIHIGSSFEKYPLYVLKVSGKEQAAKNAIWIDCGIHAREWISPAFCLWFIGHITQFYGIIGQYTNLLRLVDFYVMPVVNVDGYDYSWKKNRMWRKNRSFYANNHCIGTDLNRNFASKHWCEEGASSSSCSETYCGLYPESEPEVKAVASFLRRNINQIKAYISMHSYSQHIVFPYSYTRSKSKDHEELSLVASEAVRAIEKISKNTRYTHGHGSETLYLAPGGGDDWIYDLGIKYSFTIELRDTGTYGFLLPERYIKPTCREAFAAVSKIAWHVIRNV
Description: (§1) In order to gain insight into the inhibitory mechanism of CPI-2KR against CPR, a classical Henri-Michaelis-Menten kinetics analysis was performed. Since the Lineweaver-Burke plot (FIG. 3C) is prone to error, particularly at low concentrations of inhibitor and substrate, the Dixon plot (1/v versus [I]) was employed to evaluate the inhibitory mechanism of CPI-2KR (FIG. 3D). Replotting of the slopes of the Dixon plot against 1/[S] confirmed that CPR-2KR is a competitive inhibitor of CPR given that the line went through the origin (FIG. 3D insert). The Km Kmₐₚₚ and Vmax were determined from the data obtained for no inhibitor and the highest inhibitor concentration (253 nM) from the Lineweaver-Burke plots (FIG. 3E) . These values were in turn used to calculate the dissociation constant of CPI-2KR (Ki).
(§2) The activity of the CPR inhibitors was determined against purified CPR using hippuryl-L-arginine as the substrate. The peptides PCI-2K-R, CPI-2KR, PCI (500, 250/125/62.5, 50 mg/ml, respectively) or Tris-HCl buffer (50 mM; pH 7.5) were added to active CPR (40-320 mg/ml) at a 1:7 ratio. […] After mixing well, the generation of hippuric acid was determined by measuring the OD at 405 nm on a SpectraMAX 250 Microplate Spectrophotometer (Molecular Device Corporation, Sunnyvale, Calif., USA). […]

Carboxypeptidase R (CPR) [2] = target: T1, Carboxypeptidase R (CPR); assay: enzyme kinetics, Ki against that of PCI-2K-R
Description: as §1, §2

Carboxypeptidase R (CPR) [3] = target: T1, Carboxypeptidase R (CPR); assay: cell-based or functional assay
Carboxypeptidase R (CPR) [4] = target: T1, Carboxypeptidase R (CPR); assay: enzyme kinetics, Ki against that of PCI
Description: (§3) The reduced inhibitory activity of this PCI-derived peptide may be attributed to the absence of two of the three disulfide bridges founds in wild type PCI, effectively resulting in increased mobility of all residues.
(§4) The activity of the CPR inhibitors was determined against purified CPR using hippuryl-L-arginine as the substrate. The peptides PCI-2K-R, CPI-2KR, PCI (500, 250/125/62.5, 50 mg/ml, respectively) or Tris-HCl buffer (50 mM; pH 7.5) were added to active CPR (40-320 mg/ml) at a 1:7 ratio. After thorough mixing, […] was incubated with various concentrations of hippuryl-L-arginine (1.2-6.0 mM), for 15 minutes at 37° C. The reaction was stopped with the addition of sodium phosphate buffer ([…]; 0.25 M), immediately followed by 3% cyanuric chloride in 1,4-dioxane ([…]). After mixing well, the generation of hippuric acid was determined by measuring the OD at 405 nm on a SpectraMAX 250 Microplate Spectrophotometer (Molecular Device Corporation, Sunnyvale, Calif., USA). Hippuric acid (0-2.0 mM) in Tris buffer was used as the standard.
(§5) A kinetics analysis of the CPR-catalysed hydrolysis of hippuryl-L-arginine in the absence and presence of inhibitory molecules was performed. The Lineweaver-Burk reciprocal plot, based on rearrangement of the Henri-Michaelis-Menten equation into a linear form, was applied: […]

[5] = target: T2, CPI-2KR (linear 9-mer peptide Cys-Lys-Pro-Ala-Lys-Asn-Ala-Arg-Cys)
T2 chain: CKPAKNARC

Carboxypeptidase R (CPR) [6] = target: T1, Carboxypeptidase R (CPR); assay: enzyme kinetics, CPR hydrolysis of hippuryl-L-arginine, competitive inhibition
Description: as §3, §4, §5

B1: CPI-2KR (linear 9-mer peptide Cys-Lys-Pro-Ala-Lys-Asn-Ala-Arg-Cys) (peptide)
peptide: CKPAKNARC-NH2
modifications: cysteine pairing not given here
notes: Linear form, no disulfide between the terminal Cys residues
Carboxypeptidase R (CPR) [1]
  Ki: 8.8 nM
Carboxypeptidase R (CPR) [2]
  fold stronger binding affinity than PCI-2K-R: ~46 fold
Carboxypeptidase R (CPR) [3]
  effective inhibitory concentration relative to PCI (fold): 10 fold
  effective inhibitory concentration, TM-induced retardation of t-PA-induced fibrinolysis: 126 nM
Carboxypeptidase R (CPR) [4]
  fold higher Ki than that of PCI: 6 fold

B2: Carboxypeptidase N (CPN) (protein)
chain 1: CPMGCDCFVQEVFCSDEELATVPLDIPPYTKNIIFVETSFTTLETRAFGSNPNLTKVVFLNTQLCQFRPDAFGGLPRLEDLEVTGSSFLNLSTNIFSNLTSLGKLTLNFNMLEALPEGLFQHLAALESLHLQGNQLQALPRRLFQPLTHLKTLNLAQNLLAQLPEELFHPLTSLQTLKLSNNALSGLPQGVFGKLGSLQELFLDSNNISELPPQVFSQLFCLERLWLQRNAITHLPLSIFASLGNLTFLSLQWNMLRVLPAGLFAHTPCLVGLSLTHNQLETVAEGTFAHLSNLRSLMLSYNAITHLPAGIFRDLEELVKLYLGSNNLTALHPALFQNLSKLELLSLSKNQLTTLPEGIFDTNYNLFNLALHGNPWQCDCHLAYLFNWLQQYTDRLLNIQTYCAGPAYLKGQVVPALNEKQLVCPVTRDHLGFQVTWPDESKAGGSWDLAVQERAARSQCTYSNPEGTVVLACDQAQCRWLNVQLSPQQGSLGLQYNASQEWDLRSSCGSLRLTVSIEARAAGP
chain 2: VTFRHHRYDDLVRTLYKVQNECPGITRVYSIGRSVEGRHLYVLEFSDHPGIHEPLEPEVKYVGNMHGNEALGRELMLQLSEFLCEEFRNRNQRIVQLIQDTRIHILPSMNPDGYEVAAAQGPNKPGYLVGRNNANGVDLNRNFPDLNTYIYYNEKYGGPNHHLPLPDNWKSQVEPETRAVIRWMHSFNFVLSANLHGGAVVANYPYDKSFEHRVRGVRRTASTPTPDDKLFQKLAKVYSYAHGWMFQGWNCGDYFPDGITNGASWYSLSKGMQDFNYLHTNCFEITLELSCDKFPPEEELQREWLGNREALIQFLEQVHQGIKGMVLDENYNNLANAVISVSGINHDVTSGDHGDYFRLLLPGIYTVSATAPGYDPETVTVTVGPAEPTLVNFHLKRSIPQVSPVRRAPSRRHGVRAKVQPQARKKEMEMRQLQRGPA
[5]
  CPN-catalysed hydrolysis of hippuryl-L-arginine: CPI-2KR did not exhibit any inhibitory activity against CPN at 506 nM

B3: potato carboxypeptidase inhibitor (PCI) (other, UniProt P01075 1-39, looked up)
chain: QQHADPICNKPCKTHDDCSGAWFCQACWNSARTCGPYVG
modifications: disulfide 12-27, 18-34, 8-24
notes: mature
Carboxypeptidase R (CPR) [3]
  reversal of TM-induced suppression of t-PA-induced fibrinolysis in human plasma: 12 nM
Carboxypeptidase R (CPR) [6]
  Ki: 1.4 nM

B4: PCI-2K-R (heterodimer of PCI-2K and PCI-R joined by a disulfide bond) (peptide)
chain 1: NKPCKTHDD-NH2
chain 2: QACWNSART-NH2
modifications: disulfide I:4-II:3; N-terminus assumed
SMILES: C[C@H](NC(=O)[C@H](CO)NC(=O)[C@H](CC(N)=O)NC(=O)[C@H](Cc1c[nH]c2ccccc12)NC(=O)[C@H](CSSC[C@H](NC(=O)[C@@H]1CCCN1C(=O)[C@H](CCCCN)NC(=O)[C@@H](N)CC(N)=O)C(=O)N[C@@H](CCCCN)C(=O)N[C@H](C(=O)N[C@@H](Cc1c[nH]cn1)C(=O)N[C@@H](CC(=O)O)C(=O)N[C@@H](CC(=O)O)C(N)=O)[C@@H](C)O)NC(=O)[C@H](C)NC(=O)[C@@H](N)CCC(N)=O)C(=O)N[C@@H](CCCNC(=N)N)C(=O)N[C@H](C(N)=O)[C@@H](C)O
notes: also called CPI-2K-R (label in claim 5)
Carboxypeptidase R (CPR) [4]
  fold lower inhibitory activity compared to PCI: 290 fold
Carboxypeptidase R (CPR) [6]
  Ki: 407 nM

B5: Carboxypeptidase R (CPR) (protein)
chain: ASASYYEQYHSLNEIYSWIEFITERHPDMLTKIHIGSSFEKYPLYVLKVSGKEQAAKNAIWIDCGIHAREWISPAFCLWFIGHITQFYGIIGQYTNLLRLVDFYVMPVVNVDGYDYSWKKNRMWRKNRSFYANNHCIGTDLNRNFASKHWCEEGASSSSCSETYCGLYPESEPEVKAVASFLRRNINQIKAYISMHSYSQHIVFPYSYTRSKSKDHEELSLVASEAVRAIEKISKNTRYTHGHGSETLYLAPGGGDDWIYDLGIKYSFTIELRDTGTYGFLLPERYIKPTCREAFAAVSKIAWHVIRNV
[5]
  Dixon plot and slope replot, CPR-catalysed hydrolysis of hippuryl-L-arginine: confirmed that CPR-2KR is a competitive inhibitor of CPR
